Results published in patent US20230382992A1 (Bristol-Myers Squibb, published 2023).

Molecular target: CD64 (UniProt P12314 16-288, limits assumed)
Assay: assay not described

Sequence of CD64 (P12314 16-288 limits assumed): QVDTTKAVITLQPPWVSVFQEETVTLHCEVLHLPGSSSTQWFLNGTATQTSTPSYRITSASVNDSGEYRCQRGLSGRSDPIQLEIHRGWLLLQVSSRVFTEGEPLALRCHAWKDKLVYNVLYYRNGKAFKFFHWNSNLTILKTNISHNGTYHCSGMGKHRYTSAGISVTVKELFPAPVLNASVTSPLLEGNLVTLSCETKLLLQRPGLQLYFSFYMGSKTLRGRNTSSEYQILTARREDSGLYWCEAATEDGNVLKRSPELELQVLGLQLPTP

B1: TIM3.18.IgG1.3 (antibody)
heavy: QLQLQESGPGLVKPSETLSLTCTVSGGSISSRSYYWGWIRQPPGKGLEWIGSIYYSGFTYYQPSLKSRVTISVDTSKNQFSLKLSSVTAADTAVYYCATGGPYGDYAHWFEPWGQGTLVTVSSASTKGPSVFPLAPSSKSTSGGTAALGCLVKDYFPEPVTVSWNSGALTSGVHTFPAVLQSSGLYSLSSVVTVPSSSLGTQTYICNVNHKPSNTKVDKRVEPKSCDKTHTCPPCPAPEAEGAPSVFLFPPKPKDTLMISRTPEVTCVVVDVSHEDPEVKFNWYVDGVEVHNAKTKPREEQYNSTYRVVSVLTVLHQDWLNGKEYKCKVSNKALPAPIEKTISKAKGQPREPQVYTLPPSREEMTKNQVSLTCLVKGFYPSDIAVEWESNGQPENNYKTTPPVLDSDGSFFLYSKLTVDKSRWQQGNVFSCSVMHEALHNHYTQKSLSLSPGK
light: not shown
notes: Effectorless IgG1.3f (L234A, L235E, G237A); It was radioiodinated for the Scatchard assays; also called TIM3.18 (13A3) IgG1.3f (N60Q/D101E)
  binding result: no binding
